Measured values: US20260275319A1, “ARCHAEAL PEPTIDE RECOMBINASE – A NOVEL PEPTIDE LIGATING ENZYME” (MAX-PLANCK-GESELLSCHAFT ZUR FÖRDERUNG DER WISSENSCHAFTEN …, priority 2019, published 2026)

Test system: (15)KDPGA(10F) and PGA(10) peptides
Test: M. jannaschii Adriase peptide ligation rates with fluorescent peptides (SDS-PAGE/UV)
Type: biochemical
Procedure: To test this assumption, the Adriase reaction was performed with (X1)KDPGA(X2) peptides bearing a C-terminal fluorophore (SEQ ID NOs: 370-371 and 418; see also Table 6) and unmodified PGA(X3) synthetic peptides (SEQ ID NOs: 373-375; see Table 7) as model substrates. The recombination reaction is expected to result in the formation of a (X1)KDPGA(X3) fusion peptide, releasing the respective C-terminal peptides PGA(X2)(SEQ ID NOs: 414) with the C-terminal fluorescent label. The latter can be visualized in order to track the progress of the reaction.
For this purpose, ligations were performed and visualized as described above, except for the use of just 6 nM Adriase and the increasing concentrations of (15)KDPGA(10F) (SEQ ID NO: 418) and PGA(10)(SEQ ID NO: 374) peptides (2.5/5/10/20/40/80/160 µM of each peptide of the peptide pairs). The band intensity of the respectively fluorescently labeled PGA(10F)-peptide (see SEQ ID NO: 414), which is released by the ligation reaction was quantified using ImageJ v1.50i and subtracted from background signal in control reactions without PGA(10) peptide.
To determine how the reaction is influenced by recognition motif characteristics, ligation rates for other substrates were determined in the same manner, except for the use of 20 μM of the indicated substrates (see also Tables 6 and 7) and varying concentrations of Adriase (6/30/150/750 nM). […] In combination with the above experiments (FIGS. 9A and B), they provide the means to design substrates for efficient Adriase-mediated ligations.

B1: M. jannaschii Adriase: Methanocaldococcus jannaschii Adriase (MJ_0548) with C-terminal His6-tag (protein)
chain: SLIICYYGKNGAVIGGDRRQIFFRGSEENRKILEEKLYSGEIKSEEELYKLAEKLNIKIIIEDDREKVRKISDSVVCGEVRSLGIDAKRRRVYATKGKCAIVDILNDTVTNQTIKEGFGIVVLGNRFLKKKAEEELKRTAKLFPMMPIQQIEDAIKEIFEKLKWHPTVSKEYDIYSVNKYEKNFEEVIKKDIESLFKYREQLRKQLIDFGKVMSIVNKIVKNGEIGVIKDGKLHLYDDYIAIDKIDPNPKVFKVVDVEGNFKDGDIVVIENGDMKIKGTNEKVTTKYIIIHKGSHHHHHH
modifications: C-terminal His6-tag; M. jannaschii Adriase with C-terminal His-tag
- maximum rate (6 nM Adriase, 85° C., equimolar substrates 2.5-160 μM, Michaelis-Menten model, single experiment): ~ 1.4 ligations per enzyme and second
- ligation of (X1)KDPGA(X2) and PGA(X3) peptides (20 μM substrates, 6/30/150/750 nM Adriase, X1≥5 and X2=X3≥10): efficiently ligates
- substrate concentration at half maximal reaction speed (each substrate, 6 nM Adriase, 85° C., Michaelis-Menten model): 23 µM
